Test results reported in US20150359911, “Aptamer Specific to Integrin alpha-v-beta-3 and Use Thereof” (POSTECH ACADEMY-INDUSTRY FOUNDATION, published 2015).

Experiments:
Conditions in all cases: tags: R&D Systems 3050-AV
Integrin alpha-v beta-3 [1] = target: T1, Integrin alpha-v beta-3 (UniProt P06756;P05106 P06756:31-992,P05106:27-718); test: filter; Bmax 0.82; HEPES, NaCl, KCl, MgCl2 buffer, 37 C
Method: (§1) 20,000 cpm of the labeled DNA pool were put in 100 μL 1×SB buffer (200 mM HEPES, 510 mM NaCl, 25 mM KCl, 25 mM MgCl₂), and slowly cooled from 95° C. to 37° C. at a rate of 0.1° C./sec. And, integrin αᵥβ₃ (R&D systems, 3050-AV) was serially diluted to 12 points at 100 nM using buffer (200 mM HEPES, 510 mM NaCl, 25 mM KCl, 25 mM MgCl₂), and then, 30 μL of the above heated and cooled DNA pool was respectively added and reacted at 37° C. for 30 minutes. A nylon membrane (GE healthcare) was spotted with 2 μL of the complex of DNA and integrin αᵥβ₃, and then, 5.5 μL of zorbax resin (Agilent) was added thereto. And, it was put in a Durapore filter (Millipore) previously wetted with 50 μL of 1×SB buffer (200 mM HEPES, 510 mM NaCl, 25 mM KCl, 25 mM MgCl₂) and vacuum was applied. And, the membrane filter was washed with 100 μL of 1× selection buffer (200 mM HEPES, 510 mM NaCl, 25 mM KCl, 25 mM MgCl₂). The filter plate was exposed to an image plate overnight, and then, images were quantified with FLA-5100 (Fuji).
(§2) In order to examine binding affinity of clone having repeatedly observed base sequence, filter binding assay was conducted by the same method as pool binding assay. The binding affinity was calculated using SigmaPlot 11 (Systat Software Inc.) from the value obtained through the filter binding assay, and the results are shown in the following Table 4. […]

Integrin alpha-v beta-3 [2] = target: T1, Integrin alpha-v beta-3; test: filter; Bmax 0.56; HEPES, NaCl, KCl, MgCl2 buffer, 37 C
Method: as §1, §2

Integrin alpha-v beta-3 [3] = target: T1, Integrin alpha-v beta-3; test: filter; Bmax 0.69; HEPES, NaCl, KCl, MgCl2 buffer, 37 C
Method: as §1, §2

Integrin alpha-v beta-3 [4] = target: T1, Integrin alpha-v beta-3; test: filter; Bmax 0.88; HEPES, NaCl, KCl, MgCl2 buffer, 37 C
Method: as §1, §2

T1 sequence (P06756 31-992, chain 1 of 2): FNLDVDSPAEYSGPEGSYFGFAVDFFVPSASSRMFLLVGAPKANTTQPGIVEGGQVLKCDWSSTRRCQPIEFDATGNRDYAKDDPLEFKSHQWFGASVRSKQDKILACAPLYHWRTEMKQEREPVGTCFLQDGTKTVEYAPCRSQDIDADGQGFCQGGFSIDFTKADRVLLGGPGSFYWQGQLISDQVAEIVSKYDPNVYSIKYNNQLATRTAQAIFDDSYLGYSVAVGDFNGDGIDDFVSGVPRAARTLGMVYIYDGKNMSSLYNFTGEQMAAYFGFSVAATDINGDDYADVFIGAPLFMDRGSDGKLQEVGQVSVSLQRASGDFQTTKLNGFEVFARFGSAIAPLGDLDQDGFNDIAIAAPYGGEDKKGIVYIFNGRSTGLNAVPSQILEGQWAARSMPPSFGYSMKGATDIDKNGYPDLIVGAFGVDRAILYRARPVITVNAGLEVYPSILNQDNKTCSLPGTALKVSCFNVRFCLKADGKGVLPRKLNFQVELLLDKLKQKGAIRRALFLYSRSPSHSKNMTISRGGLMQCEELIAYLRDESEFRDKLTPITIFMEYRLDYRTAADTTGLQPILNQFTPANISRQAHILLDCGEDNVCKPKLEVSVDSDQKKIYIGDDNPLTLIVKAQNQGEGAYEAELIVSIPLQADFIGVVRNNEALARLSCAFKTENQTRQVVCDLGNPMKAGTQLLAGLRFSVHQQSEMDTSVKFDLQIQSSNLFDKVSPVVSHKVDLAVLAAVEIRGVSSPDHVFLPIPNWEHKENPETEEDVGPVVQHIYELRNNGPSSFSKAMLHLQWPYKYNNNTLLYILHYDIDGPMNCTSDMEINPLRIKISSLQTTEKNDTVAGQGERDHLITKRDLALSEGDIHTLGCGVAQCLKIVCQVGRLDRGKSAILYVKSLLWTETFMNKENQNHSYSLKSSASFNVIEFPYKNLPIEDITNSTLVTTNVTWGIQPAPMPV
T1 sequence (P05106 27-718, chain 2 of 2): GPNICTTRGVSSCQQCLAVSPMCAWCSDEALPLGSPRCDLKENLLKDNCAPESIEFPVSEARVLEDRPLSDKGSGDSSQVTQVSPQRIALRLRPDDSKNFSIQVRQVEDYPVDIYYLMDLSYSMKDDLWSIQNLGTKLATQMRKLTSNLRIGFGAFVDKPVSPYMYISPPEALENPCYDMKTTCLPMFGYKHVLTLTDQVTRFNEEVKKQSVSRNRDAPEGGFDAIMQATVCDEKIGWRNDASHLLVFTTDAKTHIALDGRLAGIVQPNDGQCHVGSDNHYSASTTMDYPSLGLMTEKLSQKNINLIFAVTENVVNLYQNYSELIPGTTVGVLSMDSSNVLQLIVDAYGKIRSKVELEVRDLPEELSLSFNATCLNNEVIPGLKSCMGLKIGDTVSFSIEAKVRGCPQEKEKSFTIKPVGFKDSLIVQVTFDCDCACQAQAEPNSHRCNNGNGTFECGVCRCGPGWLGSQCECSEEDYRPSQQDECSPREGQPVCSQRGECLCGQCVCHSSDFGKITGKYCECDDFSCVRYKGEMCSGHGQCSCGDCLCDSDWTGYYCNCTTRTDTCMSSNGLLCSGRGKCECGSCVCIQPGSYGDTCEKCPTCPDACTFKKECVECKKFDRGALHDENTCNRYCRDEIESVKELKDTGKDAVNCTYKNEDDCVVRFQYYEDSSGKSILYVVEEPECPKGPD

B1: Clone #25 (S003-A4-025-T7_A04), full length (ssDNA)
DNA: TCAGCCGCCAGCCAGTTCGTTTTAAGAAATTAGCACACCGTTGACTTGTTTAGTGGCGGACCAGAGCACCACAGAG
modifications: n in core = 5-(N-benzylaminocarbonyl)-2'-deoxyuridine (BzdU) [n positions 20,21,22,23,30,31,41,42,46,47,49,50,51,54 = modified dU]
Integrin alpha-v beta-3 [1]
  Kd: 17.6 nM

B2: Clone #11 (S003-A4-011-T7_C02), full length (ssDNA)
DNA: TCAGCCGCCAGCCAGTTCTTTTAATCTTCTCTGTCAGATGGCTGGTAGGGTGTATGACGACCAGAGCACCACAGAG
modifications: n in core = 5-(N-benzylaminocarbonyl)-2'-deoxyuridine (BzdU) [n positions 19,20,21,22,25,27,28,30,32,34,39,43,46,51,53,55 = modified dU]
Integrin alpha-v beta-3 [2]
  Kd: 38 nM

B3: Clone #12 (S003-A4-012-T7_D02), full length (ssDNA)
DNA: TCAGCCGCCAGCCAGTTCAGTTGCCAATTTGCAGCCTAGGATACGTTTTCGAAACTGCAGACCAGAGCACCACAGAG
modifications: n in core = 5-(N-benzylaminocarbonyl)-2'-deoxyuridine (BzdU) [n positions 21,22,28,29,30,37,42,46,47,48,49,56 = modified dU]
Integrin alpha-v beta-3 [3]
  Kd: 23.2 nM

B4: Clone #21 (S003-A4-021-T7_E03), full length (ssDNA)
DNA: TCAGCCGCCAGCCAGTTCCGAGGGAGTTATGGAGATTGTGTTGTTTAAGGTCGGAACTGACCAGAGCACCACAGAG
modifications: n in core = 5-(N-benzylaminocarbonyl)-2'-deoxyuridine (BzdU) [n positions 27,28,30,36,37,39,41,42,44,45,46,51,58 = modified dU]
Integrin alpha-v beta-3 [4]
  Kd: 59 nM
